The series “cryo-EM structure” concerns the molecule itself. The series is described as follows: cryo-EM structure.
The series “SEC” concerns the molecule itself. The series can be described thus: SEC.

Numbering of substitutions follows the chain as printed. Numbers in names are those of the source.

B1: nuclease-deactivated AsCas12f1 variant (D225A) (enzyme)
chain: MIKVYRYEIVKPLDLDWKEFGTILRQLQQETRFALNKATQLAWEWMGFSSDYKDNHGEYPKSKDILGYTNVHGYAYHTIKTKAYRLNSGNLSQTIKRATDRFKAYQKEILRGDMSIPSYKRDIPLDLIKENISVNRMNHGDYIASLSLLSNPAKQEMNVKRKISVIIIVRGAGKTIMDRILSGEYQVSASQIIHDDRKNKWYLNISYDFEPQTRVLDLNKIMGIALGVAVAVYMAFQHTPARYKLEGGEIENFRRQVESRRISMLRQGKYAGGARGGHGRDKRIKPIEQLRDKIANFRDTTNHRYSRYIVDMAIKEGCGTIQMEDLTNIRDIGSRFLQNWTYYDLQQKIIYKAEEAGIKVIKIDPQYTSQRCSECGNIDSGNRIGQAIFKCRACGYEANADYNAARNIAIPNIDKIIAESIK
With B1, in “cryo-EM structure”, the binding result was “binds”.

B2: Acidibacillus sulfuroxidans Cas12f1, wild type (enzyme)
chain: B1 chain with A225D
With B2, the “stoichiometry N” value in “SEC” came out at 2.
